Sequences and labels used below:
B1: DIVH5/DIVK4 (antibody, human IgG1, V domains shown)
VH: EVQLLESGGGLVQPGGSLRLSCAGSGFTFTDFYMNWIRQPPGKAPEWLGFIRDKAKGYTTEYNPSVKGRFTISRDNSKNTLYLQMNSLRAEDTAVYYCAREGHTAAPFDYWGQGTLVTVSS
VL: DIQMTQSPSSLSASVGDRVTITCKASQNIDKYLNWYQQKPGKAPKSLIYNTNNLQTGVPSRFSGSGSGTDFTLTISSLQPEDIATYYCLQHISRPRTFGTGTKLELK
notes: also called DIVHv5/DIVKv4
B2: DIVH3/DIVK4 (antibody, human IgG1, V domains shown)
VH: EVKLQESGGGLVQPGGSMRISCSGSGFTFTDFYMNWIRQPPGKGPEWIGFIRDKAKGYTTEYNPSVKGRFTISRDNTQNTLHLQANTLRAEDTAVYYCAREGHTAAPFDYWGQGTTVTVSS
VL: B1 VL
notes: also called DIVHv3/DIVKv4
B3: DIVH3/DIVK5 (antibody, human IgG1, V domains shown)
VH: B2 VH
VL: B1 VL with A43S, S46L
notes: also called DIVHv3/DIVKv5
B4: DIVH3/DIVK1 (antibody, human IgG1, V domains shown)
VH: B2 VH
VL: B1 VL with K24R, T56S
notes: also called DIVHv3/DIVKv1
B5: DIVH5/DIVK5 (antibody, human IgG1, V domains shown)
VH: B1 VH
VL: B1 VL with A43S, S46L
notes: also called DIVHv5/DIVKv5

Where a chain is given by its changes, count along the chain named.

For the test, the target named is T1, CD52 human leukocyte antigen (human, UniProt P31358 25-36).
T1 construct: whole, on cells; also called CD52 antigen
T1 chain (looked up): GQNDTSQTSSPS
The experiment in a line: FACS on HUT-78 cells (CD52+), FITC anti-human IgG Fc, median fluorescence, 4-parameter fit; titre = 50% of maximum binding. On the procedure: Human T-cell lymphoma cell line HUT-78 is CD52 positive and was used to assess binding of the modified antibodies of the present invention. In the present example, different concentrations of test antibody were incubated with the cells and the amount of bound antibody was assessed following incubation with a fluorescent-labelled reporter reagent. The reporter is measured using a fluorescence activated cell sorter (FACS).
For detection, the cells were incubated for 1 hour on ice with a 1:1000 dilution of FITC-labelled anti-human IgG Fc domain. This reagent is a goat anti-human IgG (Fc specific) obtained from Sigma (Poole, UK). The cells were washed as previously and re-suspended in 100 μl of PBS/2% FBS and transferred to 4 ml FACS tubes (Becton Dickinson) containing 900 μl of PBS/2% FBS/Propidium Iodide (1:1000). The cells were analysed using a conventional Becton Dickenson FACS Calibur instrument.
The binding of the test and control antibodies was determined using the Median Fluorescence value. The saturating concentration of antibody was determined from plots of the Median Fluorescence—Zero Antibody Median Fluorescence versus Concentration of antibody. The binding curves were fitted to a logistic 4 parameter sigmoidal equation using SigmaPlot, giving an excellent fit with 95% confidence levels.
The term EC50 denotes the midpoint of the concentration-response curve. A low value points to an effect from little substance. Consider B1, for which the response was half-maximal at 4.05 µg/mL (EC50).
The same measure for B2: 8.63 µg/mL; for B3: 3.3 µg/mL; for B4: 9.6 µg/mL.
As to B5, the EC50 was 3 µg/mL.

(Values after US20050152898A1 (BIOVATION, published 2005).)
